In US20210338838A1 (UNIVERSITY OF UTAH RESEARCH FOUNDATION, published 2021):
Positions count from the first letter of the chain named.

T1: monomeric C-reactive protein (CRP) (UniProt P02741 19-224)
T1 sequence (looked up): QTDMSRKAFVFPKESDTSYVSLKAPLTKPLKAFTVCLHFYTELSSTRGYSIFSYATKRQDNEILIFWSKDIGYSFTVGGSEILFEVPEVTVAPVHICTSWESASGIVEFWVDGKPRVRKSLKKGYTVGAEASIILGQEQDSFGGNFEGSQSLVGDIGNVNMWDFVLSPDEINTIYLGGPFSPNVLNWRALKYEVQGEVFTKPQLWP

B1: CFH-Del (CFH of the CFHR3/1 deletion haplotype, V62-Y402-E936) (other)
chain: EDCNELPPRRNTEILTGSWSDQTYPEGTQAIYKCRPGYRSLGNVIMVCRKGEWVALNPLRKCQKRPCGHPGDTPFGTFTLTGGNVFEYGVKAVYTCNEGYQLLGEINYRECDTDGWTNDIPICEVVKCLPVTAPENGKIVSSAMEPDREYHFGQAVRFVCNSGYKIEGDEEMHCSDDGFWSKEKPKCVEISCKSPDVINGSPISQKIIYKENERFQYKCNMGYEYSERGDAVCTESGWRPLPSCEEKSCDNPYIPNGDYSPLRIKHRTGDEITYQCRNGFYPATRGNTAKCTSTGWIPAPRCTLKPCDYPDIKHGGLYHENMRRPYFPVAVGKYYSYYCDEHFETPSGSYWDHIHCTQDGWSPAVPCLRKCYFPYLENGYNQNYGRKFVQGKSIDVACHPGYALPKAQTTVTCMENGWSPTPRCIRVKTCSKSSIDIENGFISESQYTYALKEKAKYQCKLGYVTADGETSGSITCGKDGWSAQPTCIKSCDIPVFMNARTKNDFTWFKLNDTLDYECHDGYESNTGSTTGSIVCGYNGWSDLPICYERECELPKIDVHLVPDRKKDQYKVGEVLKFSCKPGFTIVGPNSVQCYHFGLSPDLPICKEQVQSCGPPPELLNGNVKEKTKEEYGHSEVVEYYCNPRFLMKGPNKIQCVDGEWTTLPVCIVEESTCGDIPELEHGWAQLSSPPYYYGDSVEFNCSESFTMIGHRSITCIHGVWTQLPQCVAIDKLKKCKSSNLIILEEHLKNKKEFDHNSNIRYRCRGKEGWIHTVCINGRWDPEVNCSMAQIQLCPPPPQIPNSHNMTTTLNYRDGEKVSVLCQENYLIQEGEEITCKDGRWQSIPLCVEKIPCSQPPQIEHGTINSSRSSQESYAHGTKLSYTCEGGFRISEENETTCYMGKWSSPPQCEGLPCKSPPEISHGVVAHMSDSYQYGEEVTYKCFEGFGIDGPAIAKCLGEKWSHPPSCIKTDCLSLPSFENAIPMGEKKDVYKAGEQVTYTCATYYKMDGASNVTCINSRWTGRPTCRDTSCVNPPTVQNAYIVSRQMSKYPSGERVRYQCRSPYEMFGDEEVMCLNGNWTEPPQCKDSTGKCGPPPPIDNGDITSFPLSVYAPASSVEYQCQNLYQLEGNKRITCRNGQWSEPPKCLHPCVISREIMENYNIALRWTAKQKLYSRTGESVEFVCKRGYRLSSRSHTLRTTCWDGKLEYPTCAKR
notes: also called 3,1 Deletion (Del)
B2: CFH-Neu (neutral variant of full-length CFH, V62-Y402-D936) (other)
chain: B1 chain with E918D
notes: also called Neutral (Neu)
B3: CFH-V62-H402-E936 (risk variant of full-length CFH) (other)
chain: B1 chain with Y384H
notes: also called CFH-Risk; CFH-risk protein
B4: CFHT-Neu/Del (truncated CFH of the neutral and deletion haplotypes, V62-Y402) (other)
chain: EDCNELPPRRNTEILTGSWSDQTYPEGTQAIYKCRPGYRSLGNVIMVCRKGEWVALNPLRKCQKRPCGHPGDTPFGTFTLTGGNVFEYGVKAVYTCNEGYQLLGEINYRECDTDGWTNDIPICEVVKCLPVTAPENGKIVSSAMEPDREYHFGQAVRFVCNSGYKIEGDEEMHCSDDGFWSKEKPKCVEISCKSPDVINGSPISQKIIYKENERFQYKCNMGYEYSERGDAVCTESGWRPLPSCEEKSCDNPYIPNGDYSPLRIKHRTGDEITYQCRNGFYPATRGNTAKCTSTGWIPAPRCTLKPCDYPDIKHGGLYHENMRRPYFPVAVGKYYSYYCDEHFETPSGSYWDHIHCTQDGWSPAVPCLRKCYFPYLENGYNQNYGRKFVQGKSIDVACHPGYALPKAQTTVTCMENGWSPTPRCIRVSFTL
B5: CFHT-V62-H402 (risk variant of truncated CFH) (other)
chain: B4 chain with Y384H
notes: also called CFHT-Risk

Tests used:
[1] = target: T1, monomeric C-reactive protein (CRP); experiment: relative CRP-binding assay, percent of CFH-Risk, detection antibody AbCam OX-24 (#Ab112197)
[2] = target: T2, MDA-modified LDL particles; experiment: relative MDA-binding assay, percent of CFH-Risk, detection antibody AbCam OX-24 (#Ab112197)
T2 construct: Not a plain protein; also called MDA-LDL; MDA adducts

[3] = target: T2, MDA-modified LDL particles; experiment: relative MDA-binding assay, detection antibody AbCam OX-24 (#Ab112197)
[4] = target: T1, monomeric C-reactive protein (CRP); experiment: relative CRP-binding assay, detection antibody AbCam OX-24 (#Ab112197)
[5] = target: T1, monomeric C-reactive protein (CRP); experiment: rank of binding affinity among six proteins, plate-based binding assays
[6] = target: T2, MDA-modified LDL particles; experiment: as above

Binder	% FH-Risk [1] [%]	% FH-Risk [2] [%]	Binding Potential [3]	Binding Potential [4]	Binding Affinity Rank (1 best to 6 worst) [5] [rank]	Binding Affinity Rank (1 best to 6 worst) [6] [rank]
B1	972	145	43	14	–	–
B2	956	130	39	14	–	–
B3	100	100	30	1	6	6
B4	6870	94	28	101	–	–
B5	131	35	10	2	5	5
